# Results as given in IntAct's records for PubMed 32296183.
# B1: Transmembrane protein 43 (Homo sapiens), Q9BTV4 (parent)
# chain: MAANYSSTSTRREHVKVKTSSQPGFLERLSETSGGMFVGLMAFLLSFYLIFTNEGRALKTATSLAEGLSLVVSPDSIHSVAPENEGRLVHIIGALRTSKLLSDPNYGVHLPAVKLRRHVEMYQWVETEESREYTEDGQVKKETRYSYNTEWRSEIINSKNFDREIGHKNPSAMAVESFMATAPFVQIGRFFLSSGLIDKVDNFKSLSLSKLEDPHVDIIRRGDFFYHSENPKYPEVGDLRVSFSYAGLSGDDPDLGPAHVVTVIARQRGDQLVPFSTKSGDTLLLLHHGDFSAEEVFHRELRSNSMKTWGLRAAGWMAMFMGLNLMTRILYTLVDWFPVFRDLVNIGLKAFAFCVATSLTLLTVAAGWLFYRPLWALLIAGLALVPILVARTRVPAKKLE
# B2: Succinate--CoA ligase [ADP-forming] subunit beta, mitochondrial (Homo sapiens), Q9P2R7 (parent)
# chain: MAASMFYGRLVAVATLRNHRPRTAQRAAAQVLGSSGLFNNHGLQVQQQQQRNLSLHEYMSMELLQEAGVSVPKGYVAKSPDEAYAIAKKLGSKDVVIKAQVLAGGRGKGTFESGLKGGVKIVFSPEEAKAVSSQMIGKKLFTKQTGEKGRICNQVLVCERKYPRREYYFAITMERSFQGPVLIGSSHGGVNIEDVAAESPEAIIKEPIDIEEGIKKEQALQLAQKMGFPPNIVESAAENMVKLYSLFLKYDATMIEINPMVEDSDGAVLCMDAKINFDSNSAYRQKKIFDLQDWTQEDERDKDAAKANLNYIGLDGNIGCLVNGAGLAMATMDIIKLHGGTPANFLDVGGGATVHQVTEAFKLITSDKKVLAILVNIFGGIMRCDVIAQGIVMAVKDLEIKIPVVVRLQGTRVDDAKALIADSGLKILACDDLDEAARMVVKLSEIVTLAKQAHVDVKFQLPI
# B3: Ceroid-lipofuscinosis neuronal protein 6 (Homo sapiens), Q9NWW5 (parent)
# chain: MEATRRRQHLGATGGPGAQLGASFLQARHGSVSADEAARTAPFHLDLWFYFTLQNWVLDFGRPIAMLVFPLEWFPLNKPSVGDYFHMAYNVITPFLLLKLIERSPRTLPRSITYVSIIIFIMGASIHLVGDSVNHRLLFSGYQHHLSVRENPIIKNLKPETLIDSFELLYYYDEYLGHCMWYIPFFLILFMYFSGCFTASKAESLIPGPALLLVAPSGLYYWYLVTEGQIFILFIFTFFAMLALVLHQKRKRLFLDSNGLFLFSSFALTLLLVALWVAWLWNDPVLRKKYPGVIYVPEPWAFYTLHVSSRH
# partner: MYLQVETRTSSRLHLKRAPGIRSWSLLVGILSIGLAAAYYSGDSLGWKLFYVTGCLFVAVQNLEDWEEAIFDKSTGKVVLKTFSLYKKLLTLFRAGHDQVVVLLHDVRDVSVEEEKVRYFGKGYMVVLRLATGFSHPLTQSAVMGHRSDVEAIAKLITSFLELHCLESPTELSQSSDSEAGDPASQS
# B4: Golgi SNAP receptor complex member 2 (Homo sapiens), O14653 (parent)
# chain: MDPLFQQTHKQVHEIQSCMGRLETADKQSVHIVENEIQASIDQIFSRLERLEILSSKEPPNKRQNARLRVDQLKYDVQHLQTALRNFQHRRHAREQQERQREELLSRTFTTNDSDTTIPMDESLQFNSSLQKVHNGMDDLILDGHNILDGLRTQRLTLKGTQKKILDIANMLGLSNTVMRLIEKRAFQDKYFMIGGMLLTCVVMFLVVQYLT
# partner: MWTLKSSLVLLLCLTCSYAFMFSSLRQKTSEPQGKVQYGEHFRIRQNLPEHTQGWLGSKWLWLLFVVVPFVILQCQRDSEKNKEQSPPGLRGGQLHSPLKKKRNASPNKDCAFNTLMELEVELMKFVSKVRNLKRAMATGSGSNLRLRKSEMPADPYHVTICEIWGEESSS
# B5: Catenin alpha-3 (Homo sapiens), Q9UI47-2 (parent)
# chain: MSAETPITLNIDPQDLQVQTFTVEKLLEPLIIQVTTLVNCPQNPSSRKKGRSKRASVLLASVEEATWNLLDKGEKIAQEATVLKDELTASLEEVRKESEALKVSAERFTDDPCFLPKREAVVQAARALLAAVTRLLILADMIDVMCLLQHVSAFQRTFESLKNVANKSDLQKTYQKLGKELENLDYLAFKRQQDLKSPNQRDEIAGARASLKENSPLLHSICSACLEHSDVASLKASKDTVCEEIQNALNVISNASQGIQNMTTPPEPQAATLGSALDELENLIVLNPLTVTEEEIRPSLEKRLEAIISGAALLADSSCTRDLHRERIIAECNAIRQALQDLLSEYMNNAGKKERSNTLNIALDNMCKKTRDLRRQLRKAIIDHVSDSFLDTTVPLLVLIEAAKNGREKEIKEYAAIFHEHTSRLVEVANLACSMSTNEDGIKIVKIAANHLETLCPQIINAALALAARPKSQAVKNTMEMYKRTWENHIHVLTEAVDDITSIDDFLAVSGMFLFF
# partner: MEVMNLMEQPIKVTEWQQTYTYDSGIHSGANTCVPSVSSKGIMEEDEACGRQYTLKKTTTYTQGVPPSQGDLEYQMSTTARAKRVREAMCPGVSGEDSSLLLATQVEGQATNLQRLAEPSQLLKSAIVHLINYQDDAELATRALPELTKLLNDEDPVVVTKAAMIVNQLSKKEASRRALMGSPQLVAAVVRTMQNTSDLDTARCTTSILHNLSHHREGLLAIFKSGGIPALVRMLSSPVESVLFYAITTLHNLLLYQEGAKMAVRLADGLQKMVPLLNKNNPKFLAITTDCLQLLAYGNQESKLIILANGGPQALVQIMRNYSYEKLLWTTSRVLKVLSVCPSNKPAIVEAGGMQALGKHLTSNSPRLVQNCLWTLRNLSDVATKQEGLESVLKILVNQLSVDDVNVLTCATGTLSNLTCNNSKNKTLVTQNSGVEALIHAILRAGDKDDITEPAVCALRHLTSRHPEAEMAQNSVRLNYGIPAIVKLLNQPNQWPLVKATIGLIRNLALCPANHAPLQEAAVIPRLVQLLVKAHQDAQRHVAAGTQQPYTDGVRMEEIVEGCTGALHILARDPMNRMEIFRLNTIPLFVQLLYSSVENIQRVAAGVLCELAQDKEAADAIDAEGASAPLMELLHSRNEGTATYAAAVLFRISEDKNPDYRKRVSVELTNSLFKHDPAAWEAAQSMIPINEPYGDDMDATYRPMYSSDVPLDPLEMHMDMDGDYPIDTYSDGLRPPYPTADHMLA
# B6: Succinate--CoA ligase [ADP-forming] subunit beta, mitochondrial (Homo sapiens), Q9P2R7 (parent)
# chain: B2 chain
# partner: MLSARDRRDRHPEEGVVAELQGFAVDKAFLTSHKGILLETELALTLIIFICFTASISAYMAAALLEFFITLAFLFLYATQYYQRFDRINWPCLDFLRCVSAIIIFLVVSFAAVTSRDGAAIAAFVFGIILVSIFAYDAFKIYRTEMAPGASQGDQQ
# B7: Succinate--CoA ligase [ADP-forming] subunit beta, mitochondrial (Homo sapiens), Q9P2R7 (parent)
# chain: B2 chain
# partner: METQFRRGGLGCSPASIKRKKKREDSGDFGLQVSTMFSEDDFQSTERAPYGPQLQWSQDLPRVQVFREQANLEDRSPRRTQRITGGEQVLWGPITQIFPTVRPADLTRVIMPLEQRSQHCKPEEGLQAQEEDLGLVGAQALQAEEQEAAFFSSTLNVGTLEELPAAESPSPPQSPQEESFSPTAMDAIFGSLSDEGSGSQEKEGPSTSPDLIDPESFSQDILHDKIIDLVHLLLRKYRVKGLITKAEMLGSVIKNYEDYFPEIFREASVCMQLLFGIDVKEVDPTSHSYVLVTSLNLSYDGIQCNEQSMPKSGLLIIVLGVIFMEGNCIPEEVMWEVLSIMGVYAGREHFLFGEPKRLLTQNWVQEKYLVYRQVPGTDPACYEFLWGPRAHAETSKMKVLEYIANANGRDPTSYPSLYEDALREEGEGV
# B8: Catenin alpha-3 (Homo sapiens), Q9UI47-2 (parent)
# chain: B5 chain
# partner: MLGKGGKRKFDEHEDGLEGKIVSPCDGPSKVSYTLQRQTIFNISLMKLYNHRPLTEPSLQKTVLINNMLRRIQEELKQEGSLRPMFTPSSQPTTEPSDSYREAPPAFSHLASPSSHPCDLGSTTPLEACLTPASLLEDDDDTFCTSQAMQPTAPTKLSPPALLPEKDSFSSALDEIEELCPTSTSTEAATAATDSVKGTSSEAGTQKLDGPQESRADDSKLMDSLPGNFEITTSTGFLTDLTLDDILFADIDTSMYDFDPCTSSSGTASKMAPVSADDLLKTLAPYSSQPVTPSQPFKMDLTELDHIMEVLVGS
# Variants of: B1
# Settings: with ubp25_human USP25, Q9UHP3
# Sequence of ubp25_human USP25, Q9UHP3 (Q9UHP3 whole entry): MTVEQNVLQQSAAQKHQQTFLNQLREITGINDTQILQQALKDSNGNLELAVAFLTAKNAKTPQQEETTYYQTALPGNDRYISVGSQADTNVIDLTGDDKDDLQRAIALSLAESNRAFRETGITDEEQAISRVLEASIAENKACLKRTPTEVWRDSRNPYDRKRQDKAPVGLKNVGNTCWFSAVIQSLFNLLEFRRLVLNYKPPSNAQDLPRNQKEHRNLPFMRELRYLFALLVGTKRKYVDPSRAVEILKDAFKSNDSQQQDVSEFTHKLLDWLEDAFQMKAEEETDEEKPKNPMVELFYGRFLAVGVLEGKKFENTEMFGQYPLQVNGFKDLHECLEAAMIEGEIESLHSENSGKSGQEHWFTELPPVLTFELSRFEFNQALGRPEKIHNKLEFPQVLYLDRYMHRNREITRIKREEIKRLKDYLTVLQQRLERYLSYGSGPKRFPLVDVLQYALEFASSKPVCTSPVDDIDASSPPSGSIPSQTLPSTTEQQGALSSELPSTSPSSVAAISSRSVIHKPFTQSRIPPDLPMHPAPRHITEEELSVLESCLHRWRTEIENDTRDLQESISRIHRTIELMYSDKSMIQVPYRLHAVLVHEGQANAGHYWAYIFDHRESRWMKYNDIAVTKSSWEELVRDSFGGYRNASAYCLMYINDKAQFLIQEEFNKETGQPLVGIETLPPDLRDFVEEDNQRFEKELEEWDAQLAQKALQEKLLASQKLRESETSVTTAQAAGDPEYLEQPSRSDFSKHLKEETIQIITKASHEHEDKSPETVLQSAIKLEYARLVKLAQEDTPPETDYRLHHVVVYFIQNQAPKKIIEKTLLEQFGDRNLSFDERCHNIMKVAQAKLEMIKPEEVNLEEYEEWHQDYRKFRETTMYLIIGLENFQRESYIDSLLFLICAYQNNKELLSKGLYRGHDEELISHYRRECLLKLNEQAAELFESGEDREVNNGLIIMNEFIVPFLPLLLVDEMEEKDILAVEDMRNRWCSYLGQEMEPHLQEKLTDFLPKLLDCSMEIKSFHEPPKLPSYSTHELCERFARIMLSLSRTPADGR
row,Variant,effect of a mutation on the interaction
1,I91V,with no effect
2,R28W,with no effect
3,E142K,with no effect
4,E85K,with no effect
5,Y371H,with no effect

# Variants of: B1
# Settings: with ar13b_human ARL13B
row,Variant,effect of a mutation on the interaction
1,I91V,with no effect
2,R28W,disrupting interaction strength
3,E142K,disrupting interaction strength
4,E85K,disrupting interaction strength
5,Y371H,with no effect

# Variants of: B1
# Settings: with FGA
row,Variant,effect of a mutation on the interaction
1,I91V,with no effect
2,R28W,with no effect
3,E142K,with no effect
4,E85K,with no effect
5,Y371H,with no effect

# Variants of: B1
# Settings: with PCYT1B
row,Variant,effect of a mutation on the interaction
1,I91V,with no effect
2,R28W,with no effect
3,E142K,with no effect
4,E85K,with no effect
5,Y371H,with no effect

# Variants of: B1
# Settings: with zch12_human ZCCHC12, Q6PEW1
# Sequence of zch12_human ZCCHC12, Q6PEW1 (Q6PEW1 whole entry): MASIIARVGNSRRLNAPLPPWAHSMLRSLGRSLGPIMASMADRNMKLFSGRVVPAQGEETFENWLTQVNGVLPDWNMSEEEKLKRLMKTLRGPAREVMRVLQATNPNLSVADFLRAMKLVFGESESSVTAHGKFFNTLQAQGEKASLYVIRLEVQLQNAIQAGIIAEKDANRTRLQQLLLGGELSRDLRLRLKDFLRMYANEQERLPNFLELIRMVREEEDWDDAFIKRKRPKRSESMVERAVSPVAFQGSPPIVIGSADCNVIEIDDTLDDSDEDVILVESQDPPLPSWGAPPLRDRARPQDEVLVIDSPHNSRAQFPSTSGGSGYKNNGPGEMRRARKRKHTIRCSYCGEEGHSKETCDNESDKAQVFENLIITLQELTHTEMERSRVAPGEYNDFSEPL
row,Variant,effect of a mutation on the interaction
1,I91V,with no effect
2,R28W,with no effect
3,E142K,with no effect
4,E85K,with no effect
5,Y371H,with no effect

# Variants of: B2
# Settings: with sc23a_human SEC23A
row,Variant,effect of a mutation on the interaction
1,D251N,disrupting interaction strength
2,G118R,disrupting interaction strength

# Variants of: B2
# Settings: with mal2_human MAL2, Q969L2
# Sequence of mal2_human MAL2, Q969L2 (Q969L2 whole entry): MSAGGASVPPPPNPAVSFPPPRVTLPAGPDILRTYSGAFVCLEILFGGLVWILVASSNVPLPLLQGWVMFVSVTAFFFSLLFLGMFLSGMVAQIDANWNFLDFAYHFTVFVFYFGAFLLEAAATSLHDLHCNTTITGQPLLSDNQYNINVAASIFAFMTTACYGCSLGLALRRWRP
row,Variant,effect of a mutation on the interaction
1,D251N,disrupting interaction strength
2,G118R,disrupting interaction strength

# Variants of: B2
# Settings: with ar6p1_human ARL6IP1, Q15041
# Sequence of ar6p1_human ARL6IP1, Q15041 (Q15041 whole entry): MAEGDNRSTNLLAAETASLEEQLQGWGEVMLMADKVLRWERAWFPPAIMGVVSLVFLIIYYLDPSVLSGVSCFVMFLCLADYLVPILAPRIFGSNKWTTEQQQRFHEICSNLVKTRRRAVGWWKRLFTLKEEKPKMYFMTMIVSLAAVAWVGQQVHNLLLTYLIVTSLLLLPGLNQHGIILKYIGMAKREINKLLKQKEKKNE
row,Variant,effect of a mutation on the interaction
1,D251N,disrupting interaction strength
2,G118R,disrupting interaction strength

# Variants of: B3
# Settings: with cybc1_human CYBC1, Q9BQA9
row,Variant,effect of a mutation on the interaction
1,G123D,disrupting interaction strength
2,R6T,disrupting interaction strength
3,L47F,disrupting interaction strength

# Variants of: B4
# Settings: with FAM209A
row,Variant,effect of a mutation on the interaction
1,G144W,with no effect

# Variants of: B5
# Settings: with plak_human JUP
row,Variant,effect of a mutation on the interaction
1,V94D,disrupting interaction strength

# Variants of: B6
# Settings: with CMTM5, Q96DZ9-2
row,Variant,effect of a mutation on the interaction
1,D251N,disrupting interaction strength
2,G118R,disrupting interaction strength

# Variants of: B7
# Settings: with magab_human MAGEA11, P43364
row,Variant,effect of a mutation on the interaction
1,G118R,disrupting interaction strength
2,D251N,disrupting interaction strength

# Variants of: B8
# Settings: with srtd2_human SERTAD2, Q14140
row,Variant,effect of a mutation on the interaction
1,V94D,disrupting interaction strength
